Numbering of substitutions follows the chain as printed.
Experiments:
[1] = target: T1, Flag-tagged Pds5b, co-expressed with Δ86-cyclin A2 (human, UniProt Q9NTI5 1-1447); assay: pull-down
T1 sequence: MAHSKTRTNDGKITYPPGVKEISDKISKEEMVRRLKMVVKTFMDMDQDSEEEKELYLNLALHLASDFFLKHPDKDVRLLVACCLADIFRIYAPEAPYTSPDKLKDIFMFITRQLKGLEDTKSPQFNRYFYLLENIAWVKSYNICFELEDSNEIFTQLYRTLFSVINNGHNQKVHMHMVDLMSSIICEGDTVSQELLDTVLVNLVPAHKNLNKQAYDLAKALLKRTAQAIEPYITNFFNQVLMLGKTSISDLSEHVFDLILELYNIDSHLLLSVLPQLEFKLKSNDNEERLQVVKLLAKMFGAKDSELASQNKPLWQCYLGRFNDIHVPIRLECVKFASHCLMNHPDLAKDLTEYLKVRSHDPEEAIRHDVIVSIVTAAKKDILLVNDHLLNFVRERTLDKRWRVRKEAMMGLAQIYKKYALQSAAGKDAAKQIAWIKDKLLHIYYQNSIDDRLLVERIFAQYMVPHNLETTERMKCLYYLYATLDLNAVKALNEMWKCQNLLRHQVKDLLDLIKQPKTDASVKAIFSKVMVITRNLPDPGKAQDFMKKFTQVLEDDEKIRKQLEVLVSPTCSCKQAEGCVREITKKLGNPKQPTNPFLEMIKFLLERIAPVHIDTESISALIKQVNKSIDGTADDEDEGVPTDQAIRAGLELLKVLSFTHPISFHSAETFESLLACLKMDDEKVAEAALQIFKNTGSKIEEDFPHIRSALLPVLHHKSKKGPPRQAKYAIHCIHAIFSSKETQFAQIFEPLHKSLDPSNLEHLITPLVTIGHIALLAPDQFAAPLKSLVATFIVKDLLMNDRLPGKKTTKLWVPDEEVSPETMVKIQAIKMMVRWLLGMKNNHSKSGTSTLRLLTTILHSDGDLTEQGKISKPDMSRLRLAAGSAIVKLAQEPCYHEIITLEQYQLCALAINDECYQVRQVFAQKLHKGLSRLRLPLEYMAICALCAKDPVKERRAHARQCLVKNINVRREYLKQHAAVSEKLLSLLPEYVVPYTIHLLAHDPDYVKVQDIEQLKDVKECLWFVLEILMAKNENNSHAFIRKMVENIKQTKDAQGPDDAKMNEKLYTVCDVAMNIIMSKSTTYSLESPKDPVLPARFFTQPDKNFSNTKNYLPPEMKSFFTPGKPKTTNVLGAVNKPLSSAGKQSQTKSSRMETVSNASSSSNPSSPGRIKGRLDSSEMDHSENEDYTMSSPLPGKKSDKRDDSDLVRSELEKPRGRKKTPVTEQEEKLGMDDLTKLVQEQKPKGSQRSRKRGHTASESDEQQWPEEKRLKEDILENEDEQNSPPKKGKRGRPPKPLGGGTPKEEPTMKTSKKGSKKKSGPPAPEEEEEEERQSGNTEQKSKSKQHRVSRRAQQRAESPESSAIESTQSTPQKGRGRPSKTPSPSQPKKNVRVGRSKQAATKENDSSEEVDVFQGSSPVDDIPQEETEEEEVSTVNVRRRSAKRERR

[2] = target: T2, Flag-tagged Pds5b-Ser1161,1166Ala (2A), phosphorylated by Nek2a in vitro (human, UniProt Q9NTI5 1-1447, Ser1161,1166Ala | Ser1161,1166Ala); assay: pull-down
T2 sequence: T1 sequence with S1161A, S1166A

binding result [1]: binds | binding result [2]: binds
B1: recombinant human Wapl (natural protein)
chain: MTSRFGKTYSRKGGNGSSKFDEVFSNKRTTLSTKWGETTFMAKLGQKRPNFKPDIQEIPKKPKVEEESTGDPFGFDSDDESLPVSSKNLAQVKCSSYSESSEAAQLEEVTSVLEANSKISHVVVEDTVVSDKCFPLEDTLLGKEKSTNRIVEDDASISSCNKLITSDKVENFHEEHEKNSHHIHKNADDSTKKPNAETTVASEIKETNDTWNSQFGKRPESPSEISPIKGSVRTGLFEWDNDFEDIRSEDCILSLDSDPLLEMKDDDFKNRLENLNEAIEEDIVQSVLRPTNCRTYCRANKTKSSQGASNFDKLMDGTSQALAKANSESSKDGLNQAKKGGVSCGTSFRGTVGRTRDYTVLHPSCLSVCNVTIQDTMERSMDEFTASTPADLGEAGRLRKKADIATSKTTTRFRPSNTKSKKDVKLEFFGFEDHETGGDEGGSGSSNYKIKYFGFDDLSESEDDEDDDCQVERKTSKKRTKTAPSPSLQPPPESNDNSQDSQSGTNNAENLDFTEDLPGVPESVKKPINKQGDKSKENTRKIFSGPKRSPTKAVYNARHWNHPDSEELPGPPVVKPQSVTVRLSSKEPNQKDDGVFKAPAPPSKVIKTVTIPTQPYQDIVTALKCRREDKELYTVVQHVKHFNDVVEFGENQEFTDDIEYLLSGLKSTQPLNTRCLSVISLATKCAMPSFRMHLRAHGMVAMVFKTLDDSQHHQNLSLCTAALMYILSRDRLNMDLDRASLDLMIRLLELEQDASSAKLLNEKDMNKIKEKIRRLCETVHNKHLDLENITTGHLAMETLLSLTSKRAGDWFKEELRLLGGLDHIVDKVKECVDHLSRDEDEEKLVASLWGAERCLRVLESVTVHNPENQSYLIAYKDSQLIVSSAKALQHCEELIQQYNRAEDSICLADSKPLPHQNVTNHVGKAVEDCMRAIIGVLLNLTNDNEWGSTKTGEQDGLIGTALNCVLQVPKYLPQEQRFDIRVLGLGLLINLVEYSARNRHCLVNMETSCSFDSSICSGEGDDSLRIGGQVHAVQALVQLFLERERAAQLAESKTDELIKDAPTTQHDKSGEWQETSGEIQWVSTEKTDGTEEKHKKEEEDEELDLNKALQHAGKHMEDCIVASYTALLLGCLCQESPINVTTVREYLPEGDFSIMTEMLKKFLSFMNLTCAVGTTGQKSISRVIEYLEHC

Source: article doi:10.1101/2024.03.12.584565 (bioRxiv, 2024)
